Test results published in US8591913B2, “Methods of decreasing adipose tissue” (Toru Miyazaki, priority 2009, dated 2013).

B1: AIM: apoptosis inhibitor of macrophage, secretory protein with three SRCR domains; recombinant mouse and human AIM in Example 2, mouse AIM in Examples 3-16 (protein)
chain: ESPTKVQLVGGAHRCEGRVEVEHNGQWGTVCDDGWDRRDVAVVCRELNCGAVIQTPRGASYQPPASEQRVLIQGVDCNGTEDTLAQCELNYYVFDCSHEEDAGAQCENPDSDLLFIPEDVRLVDGPGHCQGRVEVLHQSQWSTVCKAGWNLQVSKVVCRQLGCGRALLTYGSCNKNTQGKGPIWMGKMSCSGQEANLRSCLLSRLENNCTHGEDTWMECEDPFELKLVGGDTPCSGRLEVLHKGSWGSVCDDNWGEKEDQVVCKQLGCGKSLHPSPKTRKIYGPGAGRIWLDDVNCSGKEQSLEFCRHRLWGYHDCTHKEDVEVICTDFDV
B2: mouse AIM: protein consisting of the amino acid sequence shown in SEQ ID NO: 5; recombinant, purified from HEK293T culture supernatant (protein)
chain: MAPLFNLMLAILSIFVGSCFSESPTKVQLVGGAHRCEGRVEVEHNGQWGTVCDDGWDRRDVAVVCRELNCGAVIQTPRGASYQPPASEQRVLIQGVDCNGTEDTLAQCELNYYVFDCSHEEDAGAQCENPDSDLLFIPEDVRLVDGPGHCQGRVEVLHQSQWSTVCKAGWNLQVSKVVCRQLGCGRALLTYGSCNKNTQGKGPIWMGKMSCSGQEANLRSCLLSRLENNCTHGEDTWMECEDPFELKLVGGDTPCSGRLEVLHKGSWGSVCDDNWGEKEDQVVCKQLGCGKSLHPSPKTRKIYGPGAGRIWLDDVNCSGKEQSLEFCRHRLWGYHDCTHKEDVEVICTDFDV
modifications: mouse
notes: recombinant, purified from HEK293T culture supernatant

Legend:
[1] = Stability of AIM functions (drying and redissolution, acidic condition); format: physicochemical
3T3-L1 cells = test: Expression of genes associated with adipocyte differentiation, quantitative RT-PCR; format: cell-based; settings: mouse AIM
Protocol: The cells cultured in the above-mentioned five schedules (a) to (e) in Examples 2 and 3 above were collected on the 10th day (day 12) after the initiation of the stimuli for differentiation induction, and the expression of genes associated with adipose differentiation was analyzed using quantitative RT-PCR (QPCR).

CD36 = biological target: T1, CD36 (Mus musculus, UniProt Q08857); test: Internalization of AIM into 3T3-L1 adipocytes with or without CD36 neutralizing antibody; format: cell-based
T1 construct: endogenous in cells; host or cells: differentiated 3T3-L1 adipocytes
Protocol: Further, in order to confirm that AIM is internalized via CD36, a neutralizing antibody which inhibited the binding of a ligand to CD36 was simultaneously loaded when the 3T3-L1 adipocyte differentiated by the above-mentioned differentiation induction was loaded with AIM. Subsequently, the cultured 3T3-L1 adipocytes were collected, and stained using an anti-AIM antibody. The 3T3-L1 adipocytes loaded with AIM alone without loading the neutralizing antibody against CD36 were cultured and stained in the same manner as described above.

FAS = biological target: T2, FAS (Mus musculus, UniProt P19096); test: FAS enzyme activity in lysates of loaded 3T3-L1 cells (malonyl-CoA consumption); format: cell-based; settings: mouse AIM 5 μg/mL
T2 construct: cell lysates were prepared, and the enzyme activity of FAS was measured; endogenous in cells; host or cells: 3T3-L1 cells (differentiating or differentiated)
Protocol: Whether AIM affected an enzyme activity of FAS or not was examined.
In addition, as a schedule (f) similar to the above-mentioned schedule (e), AIM was loaded for 4 days (day 8 to day 12) after the 3T3-L1 cells differentiated, subsequently the cells were collected on the 10th day (day 12) after the initiation of the differentiation induction, cell lysates were prepared, and the enzyme activity of FAS was measured. The enzyme activity of FAS was measured based on a consumption amount of malonyl-CoA.
In addition, using a FAS inhibitor (C75) in place of AIM, the FAS inhibitor at a concentration of 25 μM was loaded according to the schedules (d) and (f), and as was the case with the above-mentioned AIM, the cells were collected on the 2nd day (day 4: schedule (d)) and 10th day (day 12: schedule (f)) after the initiation of the differentiation induction, and the enzyme activity of FAS was measured.
Further, for comparison, the cells cultured without loading AIM in the above-mentioned schedule (a) were also collected at times of the 2nd day (day 4) and 10th day (day 12) after the initiation of the differentiation induction, and the enzyme activity of FAS was measured.
FIG. 11B and FIG. 11C illustrate the results of measuring the FAS enzyme activity (Fatty acid synthase activity) (nmol NADPH/min/mg protein). FIG. 11B illustrates the results obtained on the 2nd day (day 4) after the initiation of the differentiation induction in the case of loading no AIM according to the schedule (a) (None), the case of loading AIM according to the schedule (d) (AIM (5 μg/mL)), and the case of loading the FAS inhibitor according to the schedule (d) (C75 (25 μM)). FIG. 11C illustrates the results obtained on the 10th day (day 12) after the initiation of the differentiation induction in the case of loading no AIM according to the schedule (a) (None), the case of loading AIM according to the schedule (f) (AIM (5 μg/mL)), and the case of loading the FAS inhibitor according to the schedule (f) (C75 (25 μM)).

endogenous FAS = biological target: T3, endogenous FAS (Mus musculus, UniProt P19096); test: Co-precipitation of endocytosed HA-tagged rAIM with endogenous FAS from adipose tissue lysates; format: binding; settings: HA-tagged rAIM injected into AIM-/- mice, adipose tissue lysate, anti-HA antibody, Western blotting for FAS
T3 construct: from tissue; host or cells: epididymal adipose tissue of obese AIM-/- mice
Protocol: Further, the endocytosed rAIM was precipitated using lysates derived from those adipose tissues to examine whether endogenous FAS was co-precipitated or not. That is, the presence of FAS in the precipitate was analyzed by Western blotting using HA-tagged rAIM and an anti-HA antibody.
It was confirmed that AIM was bound to FAS both in vivo and in vitro. That is, mouse rAIM tagged with HA in a total amount of 100 μg was directly injected in several sites in the epididymal adipose tissue in the obese AIM^−/− mouse. At 3 hours after the injection, the epididymal adipose tissues were collected. Then, endocytosed rAIM was precipitated from a lysate of the adipose tissues using an anti-HA antibody. Then, it was analyzed by immunoblotting (WB) whether FAS was present in the resulting precipitate.

[2] = schedule (d): day 2 to day 4, cells collected day 12

T1 sequence (Q08857 whole entry): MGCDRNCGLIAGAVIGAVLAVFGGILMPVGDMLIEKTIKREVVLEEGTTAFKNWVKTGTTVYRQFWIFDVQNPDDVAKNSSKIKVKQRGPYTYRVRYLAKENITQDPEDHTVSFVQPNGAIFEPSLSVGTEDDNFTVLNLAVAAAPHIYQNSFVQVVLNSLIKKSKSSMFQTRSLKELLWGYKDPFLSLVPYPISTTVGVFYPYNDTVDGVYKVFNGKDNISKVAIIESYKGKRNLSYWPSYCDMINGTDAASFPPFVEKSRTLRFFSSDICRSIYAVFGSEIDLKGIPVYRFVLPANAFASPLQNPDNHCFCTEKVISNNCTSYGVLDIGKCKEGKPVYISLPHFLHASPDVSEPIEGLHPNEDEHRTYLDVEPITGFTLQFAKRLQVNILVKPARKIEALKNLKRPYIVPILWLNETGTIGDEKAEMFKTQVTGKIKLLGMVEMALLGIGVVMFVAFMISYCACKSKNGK
T2 sequence (P19096 whole entry): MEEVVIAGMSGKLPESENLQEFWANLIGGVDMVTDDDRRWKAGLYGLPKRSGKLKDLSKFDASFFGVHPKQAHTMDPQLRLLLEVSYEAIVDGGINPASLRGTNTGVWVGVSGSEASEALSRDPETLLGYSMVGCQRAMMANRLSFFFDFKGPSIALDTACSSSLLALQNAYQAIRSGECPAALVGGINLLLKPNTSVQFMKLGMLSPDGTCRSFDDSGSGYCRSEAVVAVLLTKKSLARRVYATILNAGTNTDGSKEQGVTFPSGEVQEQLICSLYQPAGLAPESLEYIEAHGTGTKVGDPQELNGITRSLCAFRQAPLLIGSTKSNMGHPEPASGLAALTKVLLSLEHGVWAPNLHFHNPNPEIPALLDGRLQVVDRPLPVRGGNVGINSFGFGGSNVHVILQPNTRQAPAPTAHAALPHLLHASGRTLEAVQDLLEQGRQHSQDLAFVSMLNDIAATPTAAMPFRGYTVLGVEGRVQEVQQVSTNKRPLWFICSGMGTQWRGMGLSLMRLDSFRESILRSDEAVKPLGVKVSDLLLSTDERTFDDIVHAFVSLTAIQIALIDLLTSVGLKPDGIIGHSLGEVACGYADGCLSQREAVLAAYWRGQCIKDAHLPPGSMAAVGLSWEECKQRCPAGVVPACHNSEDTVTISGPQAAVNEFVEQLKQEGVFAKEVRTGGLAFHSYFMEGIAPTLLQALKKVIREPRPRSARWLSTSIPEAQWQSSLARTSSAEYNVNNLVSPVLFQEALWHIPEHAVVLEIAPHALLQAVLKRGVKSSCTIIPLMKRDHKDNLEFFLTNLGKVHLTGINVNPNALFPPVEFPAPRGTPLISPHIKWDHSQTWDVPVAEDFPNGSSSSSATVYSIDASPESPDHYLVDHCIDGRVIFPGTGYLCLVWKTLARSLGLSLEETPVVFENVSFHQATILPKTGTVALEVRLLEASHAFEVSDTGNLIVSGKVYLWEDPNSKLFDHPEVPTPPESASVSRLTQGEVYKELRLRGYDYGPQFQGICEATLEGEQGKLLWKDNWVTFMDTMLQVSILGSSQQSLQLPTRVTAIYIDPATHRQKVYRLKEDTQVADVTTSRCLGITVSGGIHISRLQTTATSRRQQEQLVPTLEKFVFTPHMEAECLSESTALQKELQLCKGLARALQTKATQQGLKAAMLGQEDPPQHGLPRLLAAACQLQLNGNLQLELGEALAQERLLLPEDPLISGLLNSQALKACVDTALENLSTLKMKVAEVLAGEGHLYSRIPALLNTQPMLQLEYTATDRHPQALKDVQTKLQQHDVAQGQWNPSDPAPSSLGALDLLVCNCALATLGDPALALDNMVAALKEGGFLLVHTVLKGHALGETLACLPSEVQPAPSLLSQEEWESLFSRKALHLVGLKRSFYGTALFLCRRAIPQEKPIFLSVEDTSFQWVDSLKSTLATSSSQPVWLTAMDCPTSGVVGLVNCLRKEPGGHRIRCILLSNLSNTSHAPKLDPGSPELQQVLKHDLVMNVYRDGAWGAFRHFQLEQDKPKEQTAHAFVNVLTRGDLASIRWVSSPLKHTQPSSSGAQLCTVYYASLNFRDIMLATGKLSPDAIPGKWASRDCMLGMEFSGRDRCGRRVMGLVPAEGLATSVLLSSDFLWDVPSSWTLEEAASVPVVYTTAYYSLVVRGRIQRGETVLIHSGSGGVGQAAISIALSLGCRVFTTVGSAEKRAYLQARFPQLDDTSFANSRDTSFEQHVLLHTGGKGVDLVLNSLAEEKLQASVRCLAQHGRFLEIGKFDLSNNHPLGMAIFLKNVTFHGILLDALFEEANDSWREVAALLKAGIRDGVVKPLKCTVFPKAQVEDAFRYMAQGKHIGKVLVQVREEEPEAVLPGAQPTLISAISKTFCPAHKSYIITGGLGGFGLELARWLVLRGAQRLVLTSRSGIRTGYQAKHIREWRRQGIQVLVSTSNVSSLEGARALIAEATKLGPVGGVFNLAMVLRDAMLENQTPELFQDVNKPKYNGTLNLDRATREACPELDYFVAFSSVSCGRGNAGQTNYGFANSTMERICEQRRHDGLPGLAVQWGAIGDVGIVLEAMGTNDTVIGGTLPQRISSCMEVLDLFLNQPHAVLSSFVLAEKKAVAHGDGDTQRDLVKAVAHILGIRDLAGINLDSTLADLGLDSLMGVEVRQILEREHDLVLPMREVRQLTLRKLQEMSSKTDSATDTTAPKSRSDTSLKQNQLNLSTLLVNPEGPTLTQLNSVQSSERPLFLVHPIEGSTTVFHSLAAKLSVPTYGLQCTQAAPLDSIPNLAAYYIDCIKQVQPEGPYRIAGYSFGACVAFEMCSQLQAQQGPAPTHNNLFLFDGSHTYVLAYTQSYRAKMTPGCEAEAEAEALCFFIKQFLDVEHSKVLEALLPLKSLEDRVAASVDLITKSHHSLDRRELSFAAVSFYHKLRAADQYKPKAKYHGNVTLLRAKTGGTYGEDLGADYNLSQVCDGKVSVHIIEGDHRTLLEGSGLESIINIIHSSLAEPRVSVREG
T3 sequence (P19096 whole entry): as above

| Molecule | functions of AIM after drying and redissolution ([1]; drying such as lyophilization, redissolution) | functions of AIM under an acidic condition ([1]; pH of about 2 to 3) | expression of the C/EBPα gene (3T3-L1 cells; schedule (b): day 2 to day 12) | expression of the CD36 gene (3T3-L1 cells; schedule (b): day 2 to day 12) | expression of the FAS gene (3T3-L1 cells; schedule (b): day 2 to day 12) | expression of the Glut4 gene (3T3-L1 cells; schedule (b): day 2 to day 12) | expression of the PPARγ gene (3T3-L1 cells; schedule (b): day 2 to day 12) | gene expression patterns compared with no AIM (3T3-L1 cells; schedule (c): day -2 to day 2) | expression of the FAS gene (3T3-L1 cells; schedule (d): day 2 to day 4) | expression of the C/EBPα gene (3T3-L1 cells; [2]) | expression of the CD36 gene (3T3-L1 cells; [2]) | expression of the Glut4 gene (3T3-L1 cells; [2]) | expression of the PPARγ gene (3T3-L1 cells; [2]) | gene expression patterns compared with no AIM (3T3-L1 cells; schedule (e): day 6 to day 12) | internalization of AIM into the cells (CD36; neutralizing antibody against CD36 loaded simultaneously) | internalization of AIM into the cells (CD36; neutralizing antibody against CD36 not loaded) | enzyme activity of FAS (FAS; schedule (d): day 2 to day 4, cells collected day 4, compared with no AIM) | enzyme activity of FAS (FAS; schedule (f): day 8 to day 12, cells collected day 12, compared with no AIM) | co-precipitation of endocytosed rAIM and endogenous FAS (endogenous FAS) |
| --- | --- | --- | --- | --- | --- | --- | --- | --- | --- | --- | --- | --- | --- | --- | --- | --- | --- | --- | --- |
| B1 | not lost | does not lose its functions | almost completely inhibited | almost completely inhibited | slightly increased | almost completely inhibited | almost completely inhibited | not changed | slightly increased | almost completely inhibited | almost completely inhibited | almost completely inhibited | almost completely inhibited | not changed | not observed | had been internalized into the cells | remarkably reduced | remarkably reduced |  |
| B2 |  |  |  |  |  |  |  |  |  |  |  |  |  |  |  |  |  |  | co-precipitated |
